In paper PMC5714209:

Target: APOBEC3G (human), Q9HC16
Test: SEC
Conditions: remark: other sources report otherwise

stoichiometry N: 2
B1: APOBEC3G, Q9HC16 1-384 (enzyme)
chain: MKPHFRNTVERMYRDTFSYNFYNRPILSRRNTVWLCYEVKTKGPSRPPLDAKIFRGQVYSELKYHPEMRFFHWFSKWRKLHRDQEYEVTWYISWSPCTKCTRDMATFLAEDPKVTLTIFVARLYYFWDPDYQEALRSLCQKRDGPRATMKIMNYDEFQHCWSKFVYSQRELFEPWNNLPKYYILLHIMLGEILRHSMDPPTFTFNFNNEPWVRGRHETYLCYEVERMHNDTWVLLNQRRGFLCNQAPHKHGFLEGRHAELCFLDVIPFWKLDLDQDYRVTCFTSWSPCFSCAQEMAKFISKNKHVSLCIFTARIYDDQGRCQEGLRTLAEAGAKISIMTYSEFKHCWDTFVDHQGCPFQPWDGLDEHSQDLSGRLRAILQNQEN
